Results taken from doi:10.1101/2020.03.31.018150.

Key:
[1] = target: Retromer (His10-SNAP-VPS26/VPS35/VPS29 trimer, AF488-labeled) (human) (UniProt O75436)
[2] = target: Retromer (His10-SNAP-VPS26/VPS35/VPS29 trimer, AF488-labeled) (human) (UniProt O75436); remark: listed apart in the source

## Retromer (His10-SNAP-VPS26/VPS35/VPS29 trimer, AF488-labeled) (from UniProt O75436;Q96QK1;Q9UBQ0) (complex)
[1]
  percent of particles that are dimers: 35%
  percent of particles that are monomers: 18%
  percent of particles that are pentamers or higher-order oligomers up to ten: 10%
  percent of particles that are tetramers: 13%
  percent of particles that are trimers: 24%
[2]
  mean Retromer complexes per cluster (Retromer complexes per cluster): 2.7
